Assay results published in the supplement of paper PMC12042874.
± gives the uncertainty stated by the source.

Assay: amyloid nucleation score (Sup35N fusion, yeast selection) (log enrichment); library NNK1; higher = more nucleation; inactive = no reads after selection
Procedure, shortened: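 Peptides of 20 random codons fused to Sup35N were expressed in psi-negative yeast, induced 24 hours with 100 μM copper sulfate, then grown 7 days at 30°C on medium lacking adenine and uracil. Input and output plasmid inserts were Illumina-sequenced. Nucleation score is the DiMSum log enrichment of output over input reads, centred on the mode score of non-aggregating sequences, excluding sequences with under 100 input reads. Random libraries had three technical output replicates.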

FTDTEYLQGLDIGVGMERLY and FTLHYCLMDAFWGSSMDRGV are within error of each other in amyloid nucleation score: -0.218 ± 0.65 for the first, 0.275 ± 0.41 for the second.

FTSRYLDF and FTVSLTSLYYISITGLLARR are within error of each other in amyloid nucleation score: 0.382 ± 1.2 for the first, -0.115 ± 0.52 for the second.

Going from FTVVLYLSVVLKFKDAGEEG to FVAGDSLTHARKYAVQRL, the amyloid nucleation score falls from 4.09 ± 0.092 to -1.08 ± 0.59.

FVAVNILDMMKAYKLFENLF and FVCWRYRCFLWELEEDGLVN are within error of each other in amyloid nucleation score: -0.256 ± 0.22 for the first, 0.627 ± 0.71 for the second.

FVFHVGDDARGSCHKCRLWN and FVGFGWYCLDFFHFLNASLG are within error of each other in amyloid nucleation score: 0.665 ± 0.62 for the first, -0.29 ± 1.4 for the second.

First: FVGGVSSERYLFGWLS
Second: FVHDLWLGYGVNFLIAVMCS
The amyloid nucleation score of the first is lower: -1.51 ± 1 for the first, 0.209 ± 0.34 for the second.

FVHPLMYSDS and FVINSTIRKVFFGFPDWCMC are within error of each other in amyloid nucleation score: -0.386 ± 0.43 for the first, -0.135 ± 0.3 for the second.

FVKGRGNKTQVWHESVYKDA and FVKNSKHYRPFLNGSKRM are within error of each other in amyloid nucleation score: -0.203 ± 0.54 for the first, 0.475 ± 0.83 for the second.

Compared with FVLFRLFEFASNIRVTFFF, FVLGDCCDIFSSYNQIMYIS is higher in amyloid nucleation score: -0.833 ± 0.62 for the first, 3.26 ± 0.12 for the second.

Compared with FVLGWQI, FVMFLPIYEF is lower in amyloid nucleation score: 1.63 ± 0.56 for the first, -0.35 ± 0.8 for the second.

First: FVRIRYITGRITSDRRREFC
Second: FVSNYYYV
The amyloid nucleation score of the first is lower: 0.591 ± 1 for the first, 1.95 ± 0.17 for the second.

FVSRGLYGVLGTVSFLL and FVSWLFVS are within error of each other in amyloid nucleation score: -2.07 ± 1.6 for the first, -1.4 ± 0.98 for the second.

FVVAVGLIVFD and FVVEWWLASRMGLLIRGYRR are within error of each other in amyloid nucleation score: 0.027 ± 1.7 for the first, -0.462 ± 0.58 for the second.

FVVRLRLLANLWWYNCCKCS and FWCISVRVNYNGYYVYF are within error of each other in amyloid nucleation score: 0.748 ± 0.43 for the first, 1.2 ± 0.26 for the second.

FWELECADIAVKSKGGCQGC and FWGCTQMSRLDATDVSL are within error of each other in amyloid nucleation score: -0.402 ± 0.44 for the first, 0.867 ± 1 for the second.

FWGNGQRVNSNIQRDVKWDA and FWIEGP are within error of each other in amyloid nucleation score: -0.199 ± 0.45 for the first, 0.564 ± 0.9 for the second.

First: FWSYLSGLVGMYGQIVIKKA
Second: FWYSNIYSIFMLPVIVWEPN
The amyloid nucleation score of the first is lower: 0.059 ± 0.79 for the first, 6.515 ± 0.053 for the second.

Compared with FYCPRIKNVFSEICIC, FYHKTFVYKEGLNGAALLGM is lower in amyloid nucleation score: 3.79 ± 0.1 for the first, -0.023 ± 0.48 for the second.

FYRCRRSRNGGISDVFRIIP and FYRSQMIFFYMLVAPMWGRL are within error of each other in amyloid nucleation score: 0.242 ± 0.3 for the first, -0.599 ± 0.56 for the second.

FYSCIYYGHMLVELPDMLEL and FYTCCMSYVVWIMHVRRLAG are within error of each other in amyloid nucleation score: -0.056 ± 0.35 for the first, 0.774 ± 0.56 for the second.

GACLWGT and GAILENYALFESRTYFMLHC are within error of each other in amyloid nucleation score: 0.338 ± 0.29 for the first, 0.383 ± 0.66 for the second.

GALFWVIPIMLLMRSGLLDP and GAPRSCGLAD are within error of each other in amyloid nucleation score: 0.498 ± 0.3 for the first, 0.27 ± 0.63 for the second.

GATTMFEVGICNENRKVYVE and GCFMLSSGLGISEPGSFWWG are within error of each other in amyloid nucleation score: -0.179 ± 0.29 for the first, 0.224 ± 0.53 for the second.

GCFRGPTGLCG and GCMAPNCCGWEGVDEMSWVR are within error of each other in amyloid nucleation score: -0.271 ± 0.66 for the first, -0.013 ± 0.84 for the second.

First: GCRGSFVEGWIAHMADGSFI
Second: GCRPMSFKMSVAVGHLMGDT
The amyloid nucleation score of the first is lower: -0.577 ± 0.57 for the first, 2.79 ± 0.2 for the second.

GCSLLHLRVWYLSDHIIMRS and GDMFVAKCYSRGDSQISLMF are within error of each other in amyloid nucleation score: 0.834 ± 0.36 for the first, 0.368 ± 0.37 for the second.

GDRKACSVRCRHATDKICAD and GDYVRWVRSGYLMQLLNEDS are within error of each other in amyloid nucleation score: -0.309 ± 0.57 for the first, -0.379 ± 0.75 for the second.

GDYYACGPTCGSRAAFPGVG and GEFESSNVRSACSGGYFRAA are within error of each other in amyloid nucleation score: -0.383 ± 0.59 for the first, -0.186 ± 0.88 for the second.

Going from GEKYNIFNFGFVLCSSLVLF to GEVSRWRMCGLSLMEGRGLQ, the amyloid nucleation score falls from 8.116 ± 0.049 to 0.733 ± 0.44.

GFCFCCRSGYARVIRFEART and GFDFMWGGGFRNSRNRFQLS are within error of each other in amyloid nucleation score: -0.17 ± 0.48 for the first, 0.428 ± 0.6 for the second.

Compared with GFFGFIGRVMVIGRWREVPG, GFFVNNCLFSILLDFWVSEE is higher in amyloid nucleation score: -0.265 ± 0.24 for the first, 1.24 ± 0.26 for the second.

Compared with GFIQWLMLWRVFFSM, GFIVTGNVGTFNALLERVLT is higher in amyloid nucleation score: -0.681 ± 0.39 for the first, 4.04 ± 0.13 for the second.

GFKGILTYGRGVLVHFYRPQ and GFLVSEGFLIVGLLIRVRGL are within error of each other in amyloid nucleation score: 0.09 ± 0.35 for the first, 0.641 ± 0.37 for the second.

First: GFMICVADTGTANSSYVDVF
Second: GFMVDERSTIVEDLPRSADV
The amyloid nucleation score of the first is higher: -0.201 ± 0.36 for the first, -0.913 ± 0.34 for the second.

Compared with GFRQVSCHHHWGGNSWMCR, GFRSGSCGFGIL is lower in amyloid nucleation score: 0.717 ± 0.19 for the first, -1.14 ± 0.48 for the second.

Going from GFSLSPRAWRTGGVWAECAE to GFSSMGCSVRNSHTAHGGCG, the amyloid nucleation score rises from 0.7 ± 0.82 to 1.73 ± 0.17.

GFSSMRYEGFGTGKCVDFLS and GFVEYYRVLTYDKM are within error of each other in amyloid nucleation score: 0.281 ± 0.22 for the first, 1.22 ± 0.88 for the second.

GFVPLWLW and GGAHSY are within error of each other in amyloid nucleation score: 0.977 ± 0.8 for the first, 0.233 ± 0.5 for the second.

GGELMAFTA and GGFFRHGEIDMYRCSSEWFL are within error of each other in amyloid nucleation score: 0.553 ± 0.49 for the first, 0.77 ± 0.97 for the second.

GGIVLDTTHRVGYGRTSPCV and GGIYANYNFGYLARTESGLG are within error of each other in amyloid nucleation score: 0.289 ± 1.2 for the first, 1.04 ± 0.7 for the second.

GGLKMTP and GGRNWFYRALR are within error of each other in amyloid nucleation score: 0.393 ± 0.25 for the first, 0.362 ± 0.63 for the second.

For GGVISESTGYLRLIHRRWDG, the amyloid nucleation score was -0.751 ± 1.7.

For GDSYVRHRMDP, the amyloid nucleation score was “inactive”.
With GFDIMYLILTPSCPATQSGM the amyloid nucleation score was “inactive”.
With GGSGDTTSCMLFKRIVRR the amyloid nucleation score was “inactive”.
